This data set can be described thus: label from the status in PepcDB records.

Regarding “MDVLTDQDVQKFRDEGYLVLEGLLSPEECDALRRRMSEIIESMDVPEHCRTQFSTDHDEQLKTQGNADYFITSGDKIRFFFEKGVFDDKGEFVVPKEQSLNKIGHALHAYEPLFKRVTHSPKVQNICKKLELINPVILQSMYIFKQPGIGGEVTPHQDATFLYTQPLGRVMGVWVALEDAMQENGCLWFIPGSHNDGITRRMVRTPKGTFPLTDFIGREKDYDDKLFVPAPVKKGGAVLIHGEVVHRSAANTSDASRHVYTFHIMESENTVWSPENWLQATEELPFPSLYT”, the protein production result is recorded as “failed”.

For “MDVSFEFEHYQVRLIKSSDAVTIANYFMRNRHHLAPWEPKRSHAFFTPEGWKQRLLQLVELHKHNLAFYFVVVDKNEHKIIGTVSYSNITRFPFHAGHVGYSLDSEYQGKGIMRRAVNVTIDWMFKAQNLHRIMAAYIPRNEKSAKVLAALGFVKEGEAKKYLYINGAWEDHILTSKINDDWKP”, the protein production result is listed as “not failed”.

On to “MDYLVKALAYDGKVRAYAARTTDMVNEGQRRHGTWPTASAALGRTMTASLMLGAMLKGDDKLTVKIEGGGPIGAIVADANAKGEVRAYVSNPQVHFDLNEQGKLDVRRAVGTNGTLSVVKDLGLREFFTGQVEIVSGELGDDFTYYLVSSEQVPSSVGVGVLVNPDNTILAAGGFIIQLMPGTDDETITKIEQRLSQVEPISKLIQKGLTPEEILEEVLGEKPEILETMPVRFHCPCSKERFETAILGLGKKEIQDMIEEDGQAEAVCHFCNEKYLFTKEELEGLRDQTTR”, for which the protein production result is reported as “not failed”. The same measure for “MEANSGGGGGAEGGRAVTGGGGGGGGSDVELVSKTLQVEHKLFYFDLKENPRGRYLKISEKTSATRSTIIVPSSGISWFLDLFNYYVNSEEHELFSKELQLDSKVFYFDIGENRRGRFLKVSEASVSRNRSTIIVPAGSSPDEGWAAFRNILAEIHEASGLFVMPNQKPSDGQEHLVDDVGAGFIPGHGSQQPSSSEHNVDRTIDSPGSDRSSIILPLSGLKQFHEVIGHFVEITKDKIEVLILLEDGNFQSSNHLNLATSSRLPDRGVQ”: “failed”. Next, “MEATEKLREKPIKSLFISYLIPAVLGMVLMSVNIVIDAVMISRGVGANGLAGVNVAIPAFSIFFSISLWIGMGGATLYSIALGENKIERARSIFTQSMTVAVIIVGVLAAICLWRIEDLAYVFGANEVILPYALDYLHVLLTFGMIYVLENILSTFIRNDGNPNLAMAGLVVTAVLNIVFDYIFIFIFKWGVTGAASATILSAAIGFLVLLTHFFRKSSILKWTKFHFEWDTVKQIMIIGFPSFTAESTVAIVTIGFNIAFVQYAGEVGVASYAMVNSIHAMTLLLFFGVGAALQPIASFHYGANLAERLREGLQFAVKIAVVLGGVAIIVGLFFGKYIIGLFDVQSPELLELTLTGMSLFFIQYVFLGYNIVYGEYFQSVRQTTKSVLIIMSRGLLFIIPLLWIMPKLFGINGIWLVMPVAEVLTAIIVFTMNRMKHPVPLNMAGEKEAI”: “failed”; “MEATEKLREKPIKSLFISYLIPAVLGMVLMSVNIVIDAVMISRGVGANGLAGVNVAIPAFSIFFSISLWIGMGGATLYSIALGENKRERARSIFTQSMTVAVVIVGILAAICLWRIEDLAYLFGANEVILPYALDYLHVLLTFGMIYVLENILSTFIRNDGNPNLAMAGLVVTAVLNIVFDYIFIFIFGWGVTGAASATILSAAIGFLVLLTHFFRKSSILKWTKFHFEWDTVKQIMVIGFPSFTAESTVAIVTIGFNIAFVQYAGEVGVASYAMVNSIHAMTLLLFFGVGAALQPIASFHYGANLSERLREGLKFAVKIAVVLGGIAIIVGLFFGKYIIGLFDVQSPELLELTLTGISLFFIQYVFLGYNIVYGEYFQSVRQTKKSVLIIMSRGLLFIIPLLWIMPKLFGINGIWLVMPVAEVMTAIIVFTMNRMKHPVPLNMAGEKEAI”: “not failed”; “MEATNKMKVEVWSDIMCPFCYIGKRNYEAGLKQFADSNNIEIIWKSFQLDPNIPQDTAVTENVYQYLAERKGMSYEQSVQMHDSVVATAKKAGLDYNFDKAVIANSFNAHRMIQLAKTKDLGDAAEERLFYAYFTEGKNVGNSYVLIELGKDIGLTEAEVQTALTDDTYAYKVRQDVEEAQHLGVRGVPFFVFDRKYAVSGAQPPQAFLETLEKSFSEWRKEHPASPFEVSEGPSCSVDGCD”: “not failed”. The same measure for “MECDRNVEKMSQVILLFFIYSFIGWLWETVYCSLKAKKFVYRGFLVGPYCPIYGFGVLSVLYFVEPFENNLLVLYVGSAVLVTILEYVTSYGLEKLFHASWWDYHDVPFNLNGRVALPVSLFWGLGCVLIVKVIQPEIAKVVSFLQATFGNYLALCIVIVMGLDLIYTLLNMQGFKKLITEMGQTLETNQQEFKQRLNTKMEIATADWQKLKERTKKEHFQNRLNFQQRRFINNYPKLTLKNIKNSKEVRHLLEDLKKKGQ”: “failed”.

For the sequence “MEDAAEQERGFHVITIRKQIVTAALPLQDHWLPLSNLDLLLPPVQISVCFCYKKPRHFLSVAETLKASLAEALVSYYAFAGELVKNSSGEPEILCNNRGVDFLEAVADVELRELNLHDPDESIAKLVPKKKHGVIAIQVTQLKCGSIVVGCTFDHRIADAFSMNMFLVSWAEISRFNAPISSVPSFRRSILNPRRPLIIDSSIDKMYMPVTSLPLPQETTNDLDNILTSRIYYIKENALEDLQTLASGSSPKTGYGQRTKLESFSAFLWKLVAKHTGRDLVSNKNSKMGIVVDGRRRLMEKEDNTYFGNVLSIPFGGQSIDDLIDKPLSWVTNEVHRFLEEAVTKEHFLNLIDWVEIHRPIPAVSRIYSTGTDDGPAFVVSSGRSFPVNKVDFGWGLPVFGSYHFPWEGSSGYVMPMPSPVDDGNGDWVVYLHLTKGQLKFIEEEASHVLKPIDNYYLKINTIN”, the protein production result was “failed”.

In the case of “MEDDCEELQVPVGTLTSIGFSISNNNDRDKMSVLEVEAPNQVTDSRLGLPNPDSVCRTCGSKDRKVCEGHFGVINFAYSIINPYFLKEVAALLNKICPGCKYIRKKQFQITEDQPERCRYCTLNTGYPLMKFRVTTKEVFRRSGIVVEVNEESLMKLKKRGVLTLPPDYWSFLPQDSNIDESCLKPTRRIITHAQVYALLLGIDQRLIKKDIPMFNSLGLTSFPVTPNGYRVTEIVHQFNGARLIFDERTRIYKKLVGFEGNTLELSSRVMECMQYSRLFSETVSSSKDSANPYQKKSDTPKLCGLRFMKDVLLGKRSDHTFRTVVVGDPSLKLNEIGIPESIAKRLQVSEHLNQCNKERLVTSFVPTLLDNKEMHVRRGDRLVAIQVNDLQTGDKIFRSLMDGDTVLMNRPPSIHQHSLIAMTVRILPTTSVVSLNPICCLPFRGDFDGDCLHGYVPQSIQAKVELDELVALDKQLINRQNGRNLLSLGQDSLTAAYLVNVEKNCYLNRAQMQQLQMYCPFQLPPPAIIKASPSSTEPQWTGMQLFGMLFPPGFDYTYPLNNVVVSNGELLSFSEGSAWLRDGEGNFIERLLKHDKGKVLDIIYSAQEMLSQWLLMRGLSVSLADLYLSSDLQSRKNLTEEISYGLREAEQVCNKQQLMVESWRDFLAVNGEDKEEDSVSDLARFCYERQKSATLSELAVSAFKDAYRDVQALAYRYGDQSNSFLIMSKAGSKGNIGKLVQHSMCIGLQNSAVSLSFGFPRELTCAAWNDPNSPLRGAKGKDSTTTESYVPYGVIENSFLTGLNPLESFVHSVTSRDSSFSGNADLPGTLSRRLMFFMRDIYAAYDGTVRNSFGNQLVQFTYETDGPVEDITGEALGSLSACALSEAAYSALDQPISLLETSPLLNLKNVLECGSKKGQREQTMSLYLSEYLSKKKHGFEYGSLEIKNHLEKLSFSEIVSTSMIIFSPSSNTKVPLSPWVCHFHISEKVLKRKQLSAESVVSSLNEQYKSRNRELKLDIVDLDIQNTNHCSSDDQAMKDDNVCITVTVVEASKHSVLELDAIRLVLIPFLLDSPVKGDQGIKKVNILWTDRPKAPKRNGNHLAGELYLKVTMYGDRGKRNCWTALLETCLPIMDMIDWGRSHPDNIRQCCSVYGIDAGRSIFVANLESAVSDTGKEILREHLLLVADSLSVTGEFVALNAKGWSKQRQVESTPAPFTQACFSSPSQCFLKAAKEGVRDDLQGSIDALAWGKVPGFGTGDQFEIIISPKVHGFTTPVDVYDLLSSTKTMRRTNSAPKSDKATVQPFGLLHSAFLKDIKVLDGKGIPMSLLRTIFTWKNIELLSQSLKRILHSYEINELLNERDEGLVKMVLQLHPNSVEKIGPGVKGIRVAKSKHGDSCCFEVVRIDGTFEDFSYHKCVLGATKIIAPKKMNFYKSKYLKNGTLESGGFSENP”, the protein production result is listed as “failed”. Next, “MEDELPIIKGKKVILFAPTFRGSGHGTAHYPFFKIDFERLARYCEKNNAVVLFKMHPFVKNRLNIADKHKQYFVDVSDFREVNDILFITDLLISDYSSLIYEYAVFKKPMIFYAFDLEDYITTRDFYEPYESFVPGKIVQSFDALMDALDNEDYEGEKVIPFLDKHFKYQDGRSSERLVRNLFGS”: “not failed”. Next, “MEDEPGSENEADTIVASPLAKWRIEFSKSFQNYLDRSAPNIVRRWLVTLVAAVIYIYRVYSVYGYFVISYGLATYILNLLIGFLSPKVDPELEALDPDSLPVDESDEYKPFVRRLPEFKFWYAATKAFVVAFVMTFFSFLDVPVFWPILLCYWLVLYSLTMKRLIVHMFKYRYFPFDVRKPVKLLKFLVNSVLTFLRLKKQIQIGHHTRRTVWTRVYLLDFLDIGLANIHRVYAQLHLQQQQNIVKDIAMRDYWRDSIRQFPRKYLFITYQRFDEKSFLVSANHPKSAMEATTRILSTSSALNRLLLLSKLNLKSDPRNINSTNQLLHNAVTRKSSISAARIRCSSLPANANLFRSLFFLTSTFRLENTAVHANPFRSEPNDGVAVWNRAPRIVNGGGNAAIFGGNEGKETTVVLLGWLGAKAKHLRRYVEWYNSRGINAVTFTVDVRDLLRLDLGRRLERRIAEFGNELVNWVSEKEDDGREKCLVFHSFSNTGWLVYGALLESFIGRQDLVERIKGCIIDSGGADPLDTKVCSLFHVTKSFKCYSMVSPLLQDLVLEVEMSILL”: “failed”; “MEDFNMESDSFEDFWKGEDLSNYSYSSTLPPFLLDAAPCEPESLEINKYFVVIIYALVFLLSLLGNSLVMLVILYSRVGRSVTDVYLLNLALADLLFALTLPIWAASKVNGWIFGTFLCKVVSLLKEVNFYSGILLLACISVDRYLAIVHATRTLTQKRYLVKFICLSIWGLSLLLALPVLLFRRTVYSSNVSPACYEDMGNNTANWRMLLRILPQSFGFIVPLLIMLFCYGFTLRTLFKAHMGQKHRAMRVIFAVVLIFLLCWLPYNLVLLADTLMRTQVIQETCERRNHIDRALDATEILGILHSCLNPLIYAFIGQKFRHGLLKILAIHGLISKDSLPKDSRPSFVGSSSGHTSTTL”: “not failed”; “MEDGHISSWWVVDLGEEHQLMCNYYTFRQDGSRAFTRFWKFQGSMDGKTWTDLRVHEDDQTMCKAGQFASWPITAANALLPFRFFRLVLTGPTADTSTPWNFCICYLELYGYFR”: “failed”. Regarding “MEDIKIKEIFENIYEVDLGDGLKRIATKSIVKGKKVYDEKIIKIGDEEYRIWNPNKSKLAAAIIKGLKVMPIKRDSKILYLGASAGTTPSHVADIADKGIVYAIEYAPRIMRELLDACAERENIIPILGDANKPQEYANIVEKVDVIYEDVAQPNQAEILIKNAKWFLKKGGYGMIAIKARSIDVTKDPKEIFKEQKEILEAGGFKIVDEVDIEPFEKDHVMFVGIWEGK”, the protein production result was “not failed”. The same measure for “MEDLEETLFEEFENYSYDLDYYSLESDLEEKVQLGVVHWVSLVLYCLAFVLGIPGNAIVIWFTGFKWKKTVTTLWFLNLAIADFIFLLFLPLYISYVAMNFHWPFGIWLCKANSFTAQLNMFASVFFLTVISLDHYIHLIHPVLSHRHRTLKNSLIVIIFIWLLASLIGGPALYFRDTVEFNNHTLCYNNFQKHDPDLTLIRHHVLTWVKFIIGYLFPLLTMSICYLCLIFKVKKRSILISSRHFWTILVVVVAFVVCWTPYHLFSIWELTIHHNSYSHHVMQAGIPLSTGLAFLNSCLNPILYVLISKKFQARFRSSVAEILKYTLWEVSCSGTVSEQLRNSETKNLCLLETAQ”: “failed”.

(Values after a protein production outcome set (Wang et al. 2014).)
